Assay results reported in PMC2200010.

What was measured:
[1] = molecular target: Escherichia coli heat labile toxin B subunit, pentameric, recombinant (Escherichia coli) (UniProt P32890); experiment: ELISA
[2] = molecular target: cholera toxin B subunit, pentameric, recombinant (Vibrio cholerae) (UniProt P01556); experiment: ELISA
Chain of UniProt P01556 (P01556 22-124): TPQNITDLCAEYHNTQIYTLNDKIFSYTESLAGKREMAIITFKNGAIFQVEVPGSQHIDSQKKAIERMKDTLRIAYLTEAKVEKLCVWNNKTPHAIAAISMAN

Chain of UniProt P32890 (P32890 22-124): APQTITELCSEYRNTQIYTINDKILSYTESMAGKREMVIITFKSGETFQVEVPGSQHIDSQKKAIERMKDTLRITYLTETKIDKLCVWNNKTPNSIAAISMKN

Substance	stoichiometry N (A subunit per pentameric B subunit) [1]	stoichiometry N (A subunit per pentameric B subunit) [2]
Escherichia coli heat labile toxin A subunit, recombinant wild type (from UniProt P06717 19-258) (natural protein)	1	
cholera toxin A subunit, recombinant wild type (natural protein)		1
